Two molecules from PMC9436372 can be followed below.

The target in this data set is T1, ATF3 (recombinant human) (Homo sapiens, UniProt P18847 1-181).
T1 sequence: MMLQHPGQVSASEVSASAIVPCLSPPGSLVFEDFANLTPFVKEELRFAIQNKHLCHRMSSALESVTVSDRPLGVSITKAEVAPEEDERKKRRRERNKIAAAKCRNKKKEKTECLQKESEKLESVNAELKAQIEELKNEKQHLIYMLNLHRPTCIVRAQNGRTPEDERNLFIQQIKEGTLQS
As to the kind of experiment: EMSA. For orientation: Mobility shift assays separate free from complexed probe on a gel.

B1: HyATF3-2 probe (dsDNA)
DNA 1: TTATGTTTACTGACGTTTCCCTGCCTTCTA
DNA 2: TAGAAGGCAGGGAAACGTCAGTAAACATAA
With B1, the binding result is given as “binds”.

B2: HyATF3-1 probe (dsDNA)
DNA 1: GAAAAAAACGTCAGAAAACAAGTGACGTATTATA
DNA 2: TATAATACGTCACTTGTTTTCTGACGTTTTTTTC
For the molecule B2, the binding result was “binds”.
